Experimental data published in paper PMC7523994.

Tests used:
[1] = biological target: total gliadin fraction (Triticum aestivum); experiment: turbidimetry; optical density at 540 nm after 30 min of mixing at room temperature; gliadins constant at 1 mg/mL, PINA 0 to 0.1 mg/mL; 20 mM Tris-HCl pH 7.2, with or without 0.1 M NaCl; Hill ligand-binding model
[2] = biological target: total gliadin fraction (Triticum aestivum); experiment: turbidimetry; optical density at 540 nm after 30 min of mixing at room temperature; gliadins constant at 1 mg/mL, PINA 0 to 0.1 mg/mL; 20 mM malate pH 5, with or without 0.1 M NaCl; Hill ligand-binding model
[3] = biological target: γ-gliadin (Triticum aestivum) (UniProt P08453); experiment: SPR; α-gliadin, γ-gliadin or (PQQPY)8 covalently bound to a CM5 chip (EDC/NHS, 10 mM acetate pH 4.7); PINA flowed over at 10 μL/min, 25°C, 10 mM Hepes pH 7.4, 150 mM NaCl, 3.4 mM EDTA, 0.005% P20; global kinetic fit, 1:1 Langmuir model
Chain of γ-gliadin (Triticum aestivum) (P08453 20-327): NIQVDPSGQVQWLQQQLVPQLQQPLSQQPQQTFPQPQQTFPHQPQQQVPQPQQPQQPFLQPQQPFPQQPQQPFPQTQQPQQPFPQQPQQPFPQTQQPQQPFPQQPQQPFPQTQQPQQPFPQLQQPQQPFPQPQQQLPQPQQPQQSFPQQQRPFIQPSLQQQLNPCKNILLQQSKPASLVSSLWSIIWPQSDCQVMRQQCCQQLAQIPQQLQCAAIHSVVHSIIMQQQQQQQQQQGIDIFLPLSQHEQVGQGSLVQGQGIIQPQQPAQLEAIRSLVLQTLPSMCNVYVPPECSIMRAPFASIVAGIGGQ

[4] = biological target: α-gliadin (Triticum aestivum); experiment: as above
[5] = biological target: total gliadin fraction (Triticum aestivum); experiment: turbidimetry; optical density at 540 nm after 30 min of mixing at room temperature; gliadins constant at 1 mg/mL, PINA 0 to 0.1 mg/mL; 20 mM citrate pH 5, with or without 0.1 M NaCl; Hill ligand-binding model

B1: puroindoline A (natural protein)
chain: DVAGGGGAQQCPVETKLNSCRNYLLDRCSTMKDFPVTWRWWKWWKGGCQELLGECCSRLGQMPPQCRCNIIQGSIQGDLGGIFGFQRDRASKVIQEAKNLPPRCNQGPPCNIPGTIGYYW
Question: Which Kd [1] does the source give for B1 here?
Answer: 1000 nM

Question: And the Kd [2]?
Answer: 400 nM

Question: What about the Kd [3] of the same binder?
Answer: 630 nM

Question: What about the koff [3] of the same binder?
Answer: 0.00185 s⁻¹

Question: What about the kon [3] of the same binder?
Answer: 3600 M⁻¹ s⁻¹

Question: What about the response at equilibrium at 2.5 μM PINA [3] of the same binder?
Answer: 34 RU

Question: What about the Kd [4] of the same binder?
Answer: 4450 nM

Question: What about the koff [4] of the same binder?
Answer: 0.00255 s⁻¹

Question: What about the kon [4] of the same binder?
Answer: 450 M⁻¹ s⁻¹

Question: And the response at equilibrium at 2.5 μM PINA [4]?
Answer: 160 RU

Question: What about the Kd [5] of the same binder?
Answer: 600 nM
